In patent US11279770 (MERUS N V, dated 2022):

Columns and labels:
[1] = biological target: T1, human ErbB-2 (HER2) (human, UniProt P04626 23-1255); assay: cell-based or functional assay
[2] = biological target: T1, human ErbB-2 (HER2); assay: antigen titration ELISA: coated monomeric HER2 (ECD-Erbb-2) varied about 0.019-2.5 µg/ml (x axis), IgG fixed at 10 µg/ml as the text says; readout OD450 [lower panel]
Method: Wells of the ELISA plates were blocked with PBS (pH 7.2) containing 5% BSA for 1 hour at 37° C. Selected antibodies were tested in duplo at a concentration of 10 µg/ml diluted in PBS-2% BSA and allowed to bind for 2 hours at 25° C. As a control the procedure was performed simultaneously with an antibody specific for the coated antigens and a negative control antibody. The ELISA plates were washed 5 times with PBS-T (PBS-0.05% v/v Tween 20). Bound IgG was detected with 1:2000 diluted IIRP-conjugate (Goat anti-mouse IgG, BD Biosciences) and was allowed to bind for 2 hours at 25° C. The ELISA plates were washed 5 times with PBS-T (PBS-0.05% Tween 20) and bound IgG was detected by means of OD492 nm measurement.

[3] = biological target: human HER2 and HER3 co-expressed on tumour cells (human, UniProt P04626 23-1255; P21860 20-1342); assay: cell-based or functional assay
[4] = biological target: T2, ErbB2-Fc (RND systems) (UniProt P04626 23-652); assay: SPR (BIACORE T100), ErbB2-Fc on CM5 chip, bispecific as analyte, 1:1 monovalent model
T2 construct: Bought protein; also called Fc-HER2; Her2-Fc; not shown: Fc part of the bought fusion protein

[5] = biological target: T3, human ErbB-3 (HER3) (human, UniProt P21860 20-1342); assay: cell-based or functional assay
[6] = biological target: T3, human ErbB-3 (HER3); assay: FACS on CHO-K1 cells with HER3 constructs; epitope group 3 = 'Reactivity to rat, cyno and human HER3' (Table 5)

B1: PG2930 (antibody, IgG1, V domains shown)
VH: EVQLQQSGAELVKPGASVMMSCKVSGYTFTSYPIAWMKQVHGKSLEWIGNFHPYSDDTKYNENFKGKATLTVEKSSSTVYLELSRLTSDDSAVYYCARSNPLYYFAMDYWGQGTSVTVSS
VL: not shown
notes: Monospecific IgG1; also called MF2930; copies: 2 + 2
HRG dependent MCF-7 proliferation assay, % activity compared to #Ab6, 1 µg/ml IgG [1]: 7% | SKBR-3 proliferation assay, % activity compared to trastuzumab, 1 µg/ml IgG [1]: 0% | EC50 (read off the curve) [2]: ~0.7 µg/mL

B2: PB3448 (MF1849xMF3178) (bispecific antibody, IgG1, V domains shown)
VH 1: QVQLVESGGGVVQPGRSLRLSCAASGFTFSSYGMHWVRQAPGKGLEWVAVISYDGSNKYYADSVKGRFTISRDNSKNTLYLQMNSLRAEDTAVYYCAKGDYGSYSSYAFDYWGQGTLVTVSS
VH 2: not shown
VL: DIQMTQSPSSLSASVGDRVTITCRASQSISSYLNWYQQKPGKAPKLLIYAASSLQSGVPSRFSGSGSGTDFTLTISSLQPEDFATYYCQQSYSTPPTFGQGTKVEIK
notes: IgG1 bispecific with CH3 heterodimerisation mutations
BxPC3 % Inhibition [3]: -22% | MCF-7 IC50 (pM), HRG dependent proliferation [3]: 371 pM | Kd [4]: 5.4 nM

B3: PG2973 (antibody, IgG1, V domains shown)
VH: QVQLKQSGAELVRPGASVKLSCKASGYIFTGYYINWLRQRPGQGLEWIAKIYPGSGNTYYNEKFRGKATLTAEESSSTAYMQLSSLTSEDSAVYFCARGPHYDYDGPWFVYWGQGTLVTVSS
VL: not shown
HRG dependent MCF-7 proliferation assay, % activity compared to #Ab6, 1 µg/ml IgG [1]: 58% | SKBR-3 proliferation assay, % activity compared to trastuzumab, 1 µg/ml IgG [1]: 49%

B4: PB3566 (MF3004xMF3178) (bispecific antibody, IgG1, V domains shown)
VH 1: QVQLKQSGAELVRPGASVKLSCKASGYTFTGYYINWVKQRPGQGLEWIARIYPGSGYTYYNEKFKGKATLTAEESSSTAYMHLSSLTSEDSAVYFCARPHYGYDDWYFGVWGTGTTVTVSS
VH 2: not shown
VL: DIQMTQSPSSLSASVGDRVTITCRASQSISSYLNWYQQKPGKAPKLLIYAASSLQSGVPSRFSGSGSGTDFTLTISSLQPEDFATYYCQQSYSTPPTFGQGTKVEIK
BxPC3 % Inhibition [3]: -20% | MCF-7 IC50 (pM), HRG dependent proliferation [3]: 7.9 pM

B5: #Ab6 (antibody, V domains shown)
VH: EVQLLESGGGLVQPGGSLRLSCAASGFTFSHYVMAWVRQAPGKGLEWVSSISSSGGWTLYADSVKGRFTISRDNSKNTLYLQMNSLRAEDTAVYYCTRGLKMATIFDYWGQGTLVTVSS
VL: QSALTQPASVSGSPGQSITISCTGTSSDVGSYNVVSWYQQHPGKAPKLIIYEVSQRPSGVSNRFSGSKSGNTASLTISGLQTEDEADYYCCSYAGSSIFVIFGGGTKVTVL
BxPC3 % Inhibition [5]: -7% | MCF-7 IC50 (pM), HRG dependent proliferation [5]: 504 pM

B6: PG3004 (antibody, IgG1, V domains shown)
VH: QVQLKQSGAELVRPGASVKLSCKASGYTFTGYYINWVKQRPGQGLEWIARIYPGSGYTYYNEKFKGKATLTAEESSSTAYMHLSSLTSEDSAVYFCARPHYGYDDWYFGVWGTGTTVTVSS
VL: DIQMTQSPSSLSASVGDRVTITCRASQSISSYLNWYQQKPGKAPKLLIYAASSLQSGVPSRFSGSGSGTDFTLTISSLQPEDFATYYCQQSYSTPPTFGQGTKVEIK
HRG dependent MCF-7 proliferation assay, % activity compared to #Ab6, 1 µg/ml IgG [1]: 56% | SKBR-3 proliferation assay, % activity compared to trastuzumab, 1 µg/ml IgG [1]: 49%

B7: PG3099 (antibody, IgG1, V domains shown)
VH: EVQLQQPGAELVRPGTSVKLSCKASGYTFTSYWMHWVKQRPGQGLEWIGILDPSDSYTTYNQKFKGKATLTVDTSSSIAYMQLSSLTSEDSALYYCARGGDYDEGGAMDYWGQGTSVTVSS
VL: not shown
notes: Monospecific IgG1; also called MF3099; copies: 2 + 2
binding result [6]: binds
